Reference: patent US8889620B2, “Pharmaceutical compositions comprising peptide antagonists of vascular endothelial growth factor” (Children's Medical Center Corporation, priority 1997, dated 2014)
Entries after “also recorded” stand apart in the source; their conditions may differ. Blank lines part the entries; values can stand above or below the molecule they belong to. Where no end group is shown, it is not given here.

What was measured:
[1] = target: T1, KDR/Flk-1 and VEGF165R on HUVEC (Homo sapiens, UniProt O14786); test: Inhibition of 125I-VEGF165 binding to HUVEC
T1 construct: HUVEC, which express both KDR/Flk-1 and VEGF165R; endogenous in cells; host or cells: HUVEC (ATCC)
T1 sequence (O14786 22-923): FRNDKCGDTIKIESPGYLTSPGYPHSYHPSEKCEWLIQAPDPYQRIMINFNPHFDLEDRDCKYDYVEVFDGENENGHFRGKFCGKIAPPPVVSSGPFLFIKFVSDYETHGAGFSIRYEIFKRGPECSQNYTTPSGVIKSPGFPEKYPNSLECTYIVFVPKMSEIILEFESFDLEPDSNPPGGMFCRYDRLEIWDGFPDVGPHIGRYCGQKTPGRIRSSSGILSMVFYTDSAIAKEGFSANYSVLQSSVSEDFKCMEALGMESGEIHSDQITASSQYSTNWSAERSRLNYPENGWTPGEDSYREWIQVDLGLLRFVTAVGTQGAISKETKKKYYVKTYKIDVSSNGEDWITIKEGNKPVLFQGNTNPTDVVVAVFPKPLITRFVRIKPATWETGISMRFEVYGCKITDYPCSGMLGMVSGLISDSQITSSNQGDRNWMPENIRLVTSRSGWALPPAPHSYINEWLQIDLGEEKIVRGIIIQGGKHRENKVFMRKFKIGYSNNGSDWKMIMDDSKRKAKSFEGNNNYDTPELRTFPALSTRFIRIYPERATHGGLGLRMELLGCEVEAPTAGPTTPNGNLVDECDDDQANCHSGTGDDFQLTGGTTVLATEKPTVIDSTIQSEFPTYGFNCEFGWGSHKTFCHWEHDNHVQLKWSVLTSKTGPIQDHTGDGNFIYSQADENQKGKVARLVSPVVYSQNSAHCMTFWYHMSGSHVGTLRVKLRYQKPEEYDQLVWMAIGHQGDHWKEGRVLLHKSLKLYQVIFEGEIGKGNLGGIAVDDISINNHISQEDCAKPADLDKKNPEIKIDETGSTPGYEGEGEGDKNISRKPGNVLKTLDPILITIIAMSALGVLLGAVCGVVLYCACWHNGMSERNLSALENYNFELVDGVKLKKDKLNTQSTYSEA
Procedure: (§1) FIGS. 3A-3C. Inhibition of ^125I-VEGF165 binding to HUVEC, MDA MB 231 cells, and PAE-KDR cells by GST-EX 7+8. ^125I-VEGF165 (5 ng,/ml) was bound to subconfluent cultures of HUVEC (3A), MDA MB 23 1 cells (3B), and PAE-KDR cells (3C) in 48-well dishes in the presence of increasing amounts of GST-Ex 7+8 (closed 20 square) or control GST protein (open squares). At the end of a 2-h incubation, the cells were washed and lysed, and the cell-associated radioactivity was determined with a γ-counter. The counts obtained are expressed as the percentage of the counts obtained in the presence of PBS without addition of GST or fusion protein.
FIGS. 5A and 5B. Localization of a core inhibitory region within exon 7. GST-Ex 7 fusion proteins containing full-length exon 7-encoded domain or truncations at the N-terminal and C-terminal ends were prepared as described in the Examples. ^125I-VEGF165 (5 ng/ml) was bound to subconfluent HUVEC cultures as described in FIG. 3, in the presence of increasing concentrations of the GST fusion proteins. At the end of a 2-h incubation, the cells were washed and lysed, and the cell-associated radioactivity was determined with a y counter. The counts obtained are expressed as percentage of the counts obtained in the presence of PBS without fusion protein B, the amino acid sequences of VEGF exon 7 derivatives. These derivatives were prepared to contain the first cysteine residue of exon 8 at their C termini to keep an even number of cysteine residue. FIG. 5B discloses SEQ ID NO: 19.
(§2) Binding and cross-linking experiments using 125I-VEGF165 and 125I-VEGF121 were performed at described previously (Gitay-Goren, et al., J. Biol. Chem., 287, 6003-6096 (1992), Soker, et al., J: Biol. Chem., 271,5761-5767 (1996)). VEGF binding was quantified by measuring the cell-associated radioactivity in a y-counter (Beckman, Gamma 5500). The counts represent the average of three walls. All experiments were repeated at least three times, and similar results were obtained. 125I-VEGF cross-linked complexes were resolved by 6% SDS-PAGE, and the gels were exposed to a phosphor screen and scanned after 24 h by a PhosphorImager (Molecular Dynamics). Subsequently, the gels were exposed to x-ray film.

[2] = target: T2, VEGF165R on 231 cells (Homo sapiens, UniProt O14786); test: Inhibition of 125I-VEGF165 binding to MDA-MB-231 (231) cells
T2 construct: to 231 cells which express only VEGF165R; endogenous in cells; host or cells: MDA-MB-231 (ATCC)
T2 sequence (O14786 22-923): as above
Procedure: as §1, §2

[3] = target: T3, KDR/Flk-1 on PAE-KDR cells (Homo sapiens, UniProt P35968); test: Inhibition of 125I-VEGF165 binding to PAE-KDR cells; parameters: species or system porcine endothelial cells transfected to express KDR/Flk-1
T3 construct: expressed in transfected cells; host or cells: porcine endothelial cells (PAE), gift of Dr. Claesson-Welsh
T3 sequence (P35968 20-1356): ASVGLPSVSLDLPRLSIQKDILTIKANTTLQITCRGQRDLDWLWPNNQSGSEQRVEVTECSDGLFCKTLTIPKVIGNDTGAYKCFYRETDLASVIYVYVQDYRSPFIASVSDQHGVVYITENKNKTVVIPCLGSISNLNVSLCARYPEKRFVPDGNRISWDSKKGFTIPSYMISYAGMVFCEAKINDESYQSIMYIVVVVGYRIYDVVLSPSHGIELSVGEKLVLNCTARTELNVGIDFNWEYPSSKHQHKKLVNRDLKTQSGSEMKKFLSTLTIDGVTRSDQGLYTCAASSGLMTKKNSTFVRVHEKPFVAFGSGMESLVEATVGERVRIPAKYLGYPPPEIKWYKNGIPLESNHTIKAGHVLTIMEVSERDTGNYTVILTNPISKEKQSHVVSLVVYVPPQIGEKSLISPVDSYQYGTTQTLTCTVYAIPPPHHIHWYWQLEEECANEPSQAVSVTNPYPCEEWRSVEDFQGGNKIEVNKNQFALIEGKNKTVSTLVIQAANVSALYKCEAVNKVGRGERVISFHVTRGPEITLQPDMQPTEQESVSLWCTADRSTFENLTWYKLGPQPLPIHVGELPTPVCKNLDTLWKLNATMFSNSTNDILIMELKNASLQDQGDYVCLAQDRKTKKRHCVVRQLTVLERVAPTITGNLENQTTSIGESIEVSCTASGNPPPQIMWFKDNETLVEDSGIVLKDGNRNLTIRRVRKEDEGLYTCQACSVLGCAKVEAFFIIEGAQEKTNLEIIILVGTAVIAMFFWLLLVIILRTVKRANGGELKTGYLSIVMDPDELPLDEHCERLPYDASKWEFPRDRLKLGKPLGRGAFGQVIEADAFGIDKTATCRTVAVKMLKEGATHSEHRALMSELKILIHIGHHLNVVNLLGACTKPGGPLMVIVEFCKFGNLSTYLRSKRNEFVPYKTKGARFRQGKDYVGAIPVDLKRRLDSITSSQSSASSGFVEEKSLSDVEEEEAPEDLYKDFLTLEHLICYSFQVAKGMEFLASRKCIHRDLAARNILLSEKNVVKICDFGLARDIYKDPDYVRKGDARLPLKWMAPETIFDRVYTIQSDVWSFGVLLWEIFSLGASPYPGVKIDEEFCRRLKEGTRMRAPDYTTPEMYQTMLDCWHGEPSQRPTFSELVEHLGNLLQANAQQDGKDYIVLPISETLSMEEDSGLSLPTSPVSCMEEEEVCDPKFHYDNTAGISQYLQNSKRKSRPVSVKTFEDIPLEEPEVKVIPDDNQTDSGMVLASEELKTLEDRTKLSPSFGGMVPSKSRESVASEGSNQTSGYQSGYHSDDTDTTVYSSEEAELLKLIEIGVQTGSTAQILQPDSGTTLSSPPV
Procedure: as §1
Human umbilical vein endothelial cells (HUVEC) were obtained from the American Type Culture Collection (ATCC) (Rockville, Md.) and grown on gelatin-coated dishes in M-199 medium containing 20% fetal calf serum (FCS) and a mixture of glutamine, penicillin, and streptomycin (GPS). Basic FGF (1 nglml) was added to the culture medium every other day. Porcine endothelial cells (PAE), parental and transfected to express KDRElk-1 (PAE-KDR), were kindly provided by Dr. Lema Claesson-Welsh and grown in F12 medium containing 10% FCS and GPS as described (Waltenberger, et al., J. Biol. Chem., 269,26988-26995 (1994)). MDAMB-231 (231) cells were obtained from ATCC and grown in Bulbecoo's modified Eagle's medium containing 10% FCS and GPS.
as §2

[4] = test system: VEGF165-induced proliferation of HUVEC; test: Inhibition of VEGF165-stimulated HUVEC proliferation; format: cell-based, human; details: even at 25 ug/ml
Procedure: (§3) FIG. 6. GST-Ex 7+8 fusion protein inhibits VEGF165-stimulated HUVEC proliferation. HUVEC were cultured in 96-well dishes (5,000 cell/well) as in FIG. 2. Increasing concentrations of VEGF165 (open circles), together with 15 ug/ml GST-Ex 7+8 (closed circles) or 25 ug/ml GST (squares), were added to the medium, and the cells were incubated for 4 more days. DNA synthesis was measured in HUVEC as described in FIG. 2. The results represent the average counts of three wells, and the standard deviations were determined.
FIG. 7. GST-Ex 7+8 fusion protein inhibits VEGF165 and VEGF121-stimulated HUVEC proliferation. Increasing concentration of VEGF165 (circles) or VEGF121 (square) with 15 ug/ml GST-Ex 7+8 (closed symbols) or without GST-Ex 7+8 (open symbols) were added to HUVEC, and [*H]thymidine incorporation into the DNA was measured as in FIG. 2. The results represent the average counts of three wells and the standard deviations were determined.
(§4) HUVEC were seeded in gelatin-coated 96-well dishes at 4,000 cells/200 Ul/well in M-199 containing 5% FCS and GPS. After 24 H, VEGF isoforms and VEGF exon 7-GST fusion proteins were added to the wells at the same time. The cells were incubated for 72 h, and [3H]thymidine (1 pC/ml) was added for 10-12 h. The medium was aspirated, and the cells were trypsinized and harvested by an automatic cell harvester (TOMTEC) and loaded onto Filtermats (Wallac). The Filtermats were scanned and cpm were determined by a MicroBeta counter (Wallac). The results represent the average of samples assayed in triplicate, and the standard derivations were determined. All experiments were repeated at least three times and similar results were obtained.

[5] = target: T2, VEGF165R on 231 cells; details: Soker et al., J. Biol. Chem. 271, 5761-5767 (1996); cited from earlier work
[6] = target: VEGF165R (Homo sapiens, UniProt O14786); test: Direct binding/cross-linking of 125I-GST-Ex 7 to HUVEC: VEGF165R; parameters: HUVEC, which express both KDR/Flk-1 and VEGF165R; endogenous in cells; host or cells: HUVEC (ATCC); details: cross-linking, 1 ug/ml heparin, FIG. 1 lane 3; listed as exon 7 fusion protein
VEGF165R, sequence (O14786 22-923): as the sequence (O14786 22-923) above
Procedure: (§5) FIG. 1. Cross-linking of 1 ^125I-VEGF165, ^125I-VEGF121 and ^125I-GST-EX 7 to HUVEC. ^125I-VEGF165 (5 ng/ml) (lane 1) or ^125I-VEGF121 (10 ng/ml) (lane 2) or ^125I-GST-EX 7 (50 nglml) (lane 3) were bound to subconfluent cultures of HUVEC in 6-cm dishes. The binding was carried out in the presence of 1 ug/ml heparin. At the end of a 2-H incubation, each ^125I-VEGF isoform was chemically cross-linked to the cell surface. The cells were lysed and proteins were resolved by 6% SDS-PAGE. The polyacrylamide gel was dried and exposed to x-ray film.
as §2

[7] = target: KDR/Flk-1 (Homo sapiens, UniProt P35968); test: Direct binding/cross-linking of 125I-GST-Ex 7 to HUVEC: KDR/Flk-1; parameters: HUVEC, which express both KDR/Flk-1 and VEGF165R; endogenous in cells; host or cells: HUVEC (ATCC); details: cross-linking, 1 ug/ml heparin, FIG. 1 lane 3; listed as exon 7 fusion protein
KDR/Flk-1, sequence (P35968 20-1356): as the sequence (P35968 20-1356) above
Procedure: as §5, §2

[8] = test system: HUVEC; test: HUVEC proliferation ([3H]thymidine incorporation) in response to VEGF isoforms; format: cell-based, human
Procedure: FIG. 2. HUVEC proliferation in response to VEGF165 and VEGF121 HUVEC were cultured in 96-well dishes (5,000 cell/well) for 24 h. Increasing amounts of VEGF165 (closed circles) or VEGF121 (open circles) were added to the medium, and the cells were incubated for 3 more days. DNA synthesis based on the incorporation of [3H] thymidine into HUVEC DNA was measured as described in the Examples. The results represent the average counts in three wells, and the standard deviations were determined.
as §3, §4

[9] = control GST protein, even at 20 μg/ml

Molecule: GST protein: glutathione S-transferase alone, control protein prepared in a similar way [reference compound]
effect of GST alone on 125I-VEGF165 binding to HUVEC (in words) [1, 9]: no significant effect; also recorded: did not inhibit
effect of GST alone on 125I-VEGF165 binding to 231 cells (in words) [2, 9]: no significant effect; also recorded: did not inhibit
effect of GST alone on 125I-VEGF165 binding to PAE-KDR cells (in words) [3, 9]: no significant effect; also recorded: did not inhibit
inhibition of HUVEC proliferation by GST alone (in words) [4]: did not inhibit

inhibition of 125I-VEGF165 binding to HUVEC ([1]; 2 ug/ml fusion protein, FIG. 5): 80%
inhibition of 125I-VEGF165 binding to HUVEC ([1]; 125I-VEGF165 5 ng/ml, increasing concentrations of fusion protein, FIG. 3A): 85-95%
inhibition of 125I-VEGF165 binding to HUVEC compared with GST-Ex 7+8 (in words) ([1]; data not shown): comparable to that of GST-Ex 7+8
inhibition of 125I-VEGF165 binding to 231 cells ([2]; 125I-VEGF165 5 ng/ml, increasing concentrations of fusion protein, FIG. 3B): 98%
inhibition of 125I-VEGF165 binding to 231 cells compared with GST-Ex 7+8 (in words) ([2]; data not shown): comparable to that of GST-Ex 7+8
inhibition of 125I-VEGF165 binding to PAE-KDR cells (in words) ([3]; 125I-VEGF165 5 ng/ml, FIG. 3C): did not, however, inhibit at all
direct binding to KDR/Flk-1 on HUVEC (in words) [7]: not and does not bind directly
Molecule: GST-Ex 7: GST fusion protein with the entire 44 amino acid VEGF exon 7-encoded domain plus first cysteine residue of exon 8
direct binding to VEGF165R on 231 cells (in words) [5]: binds directly
direct binding to VEGF165R on HUVEC (in words) [6]: binds directly; also recorded: could bind

inhibitory activity on 125I-VEGF165 binding to HUVEC after deletion in exon 7, versus GST-Ex 7 (in words) ([1]; FIG. 5, increasing concentrations): did not reduce the inhibitory activity
Molecule: GST-Ex 7d-(1-10): GST-exon 7 fusion protein with the first 10 N-terminal amino acids of exon 7 deleted (HLFVQDPQTCKCSCKNTDSRCKARQLELNERTCRC; cysteine pairing not given here; also: GST fusion protein, side of fusion not given here)

Molecule: VEGF165: human recombinant vascular endothelial growth factor 165 isoform produced in Sf-21 insect cells
increase in the proliferation rate of HUVEC ([8]; 1-5 ng/ml VEGF165, FIG. 6): 5.5 fold
concentration at which the proliferation increase peaks ([8]; FIG. 6): 2.5 ng/mL
concentration for maximal stimulation of DNA synthesis ([8]; HUVEC, FIG. 2): 4 ng/mL
increase in HUVEC proliferation over control at maximal stimulation ([8]; HUVEC, FIG. 2): 8 fold
concentration for half-maximal stimulation of DNA synthesis ([8]; HUVEC, [3H]thymidine incorporation, FIG. 2): 1 ng/mL

B1: VEGF121: human recombinant vascular endothelial growth factor 121 isoform produced in Sf-21 insect cells (protein)
chain: APMAEGGGQNHHEVVKFMDVYQRSYCHPIETLVDIFQEYPDEIEYIFKPSCVPLMRCGGCCNDEGLECVPTEESNITMQIMRIKPHQGQHIGEMSFLQHNKCECRPKKDRARQEKCDKPRR
concentration for maximal stimulation of DNA synthesis ([8]; HUVEC, FIG. 2): 20 ng/mL
increase in HUVEC proliferation over control at maximal stimulation ([8]; HUVEC, FIG. 2): 4 fold
